# Results as given in publication PMC9720572, “Macromolecular crowding amplifies allosteric regulation of T-cell protein tyrosine phosphatase” (The Journal of Biological Chemistry, 2022).
# Changes are numbered by the printed parent chain.
# B1: TC45^E/A (TC45 with 378KRKRPR383 mutated into 378EAAAPE383), fused at both termini to CFP (CFP-TC45^E/A-CFP) or to YFP (YFP-TC45^E/A-YFP), bacterially expressed (enzyme, UniProt P17706-2 1-387, looked up)
# chain: MPTTIEREFEELDTQRRWQPLYLEIRNESHDYPHRVAKFPENRNRNRYRDVSPYDHSRVKLQNAENDYINASLVDIEEAQRSYILTQGPLPNTCCHFWLMVWQQKTKAVVMLNRIVEKESVKCAQYWPTDDQEMLFKETGFSVKLLSEDVKSYYTVHLLQLENINSGETRTISHFHYTTWPDFGVPESPASFLNFLFKVRESGSLNPDHGPAVIHCSAGIGRSGTFSLVDTCLVLMEKGDDINIKQVLLNMRKYRMGLIQTPDQLRFSYMAIIEGAKCIKGDSSIQKRWKELSKEDLSPAFDHSPNKIMTEKYNGNRIGLEEEKLTGDRCTGLSSKMQDTMEENSESALRKRIREDRKATTAQKVQQMKQRLNENEREAAAPELTDT
# notes: The His6 tag and its thrombin cleavage are described in general for the pET28 constructs and the purification; also called C-EA-C; Y-EA-Y; not shown: His6, N-terminal, cleaved; CFP (one copy) or YFP (the other copy), N-terminal, kept; CFP (one copy) or YFP (the other copy), C-terminal, kept
# B2: T-cell protein tyrosine phosphatase, 45 kDa form (TC45), wild type, fused at both termini to CFP (CFP-TC45-CFP) or to YFP (YFP-TC45-YFP), bacterially expressed (enzyme, UniProt P17706-2 1-387, looked up)
# chain: B1 chain with E378K, A379R, A380K, A381R, E383R
# notes: T-cell protein tyrosine phosphatase (TC-PTP, encoded by PTPN2), 45 kDa form TC45, full-length ORF; the printed residues 377RKRKRPR383 near the C terminus fit the 387-residue TC45 isoform; Self-association was tested with an equimolar mixture of two differently labelled copies: CFP-TC45-CFP and YFP-TC45-YFP; The His6 tag and its thrombin cleavage are described in general for the pET28 constructs …
# Biological target: the molecule itself
# Assay: FRET or BRET; in vitro intermolecular FRET; equimolar mixture of the CFP-X-CFP and YFP-X-YFP fusions, total protein 10 nM, kinetic buffer (50 mM Tris-HCl pH 7.0, 125 mM NaCl, 0.01% Tween-20, 1 mM DTT) with 22.5% PEG 3350, 1 h at 30 °C; excitation 400 nm, ratio R of emission at 530 nm/485 nm
row,Protein,binding result
1,B1,binds
2,B2,binds
